# Source: article PMC8017934
# Where “and” joins values, the source holds several entries; their conditions need not be identical. Equal entries are not always repeated. Where two headings read alike, the source gives them in different places.
# Legend:
# [1] = target: SARS-CoV-2 NSP1 (ybbR-NSP1) WT;human 40S ribosomal subunit (SARS-CoV-2;Homo sapiens) (UniProt P0DTD1); assay: single-molecule fluorescence (ZMW)
# [2] = target: SARS-CoV NSP1;human 40S ribosomal subunit (SARS-CoV;Homo sapiens) (UniProt P0C6X7); assay: single-molecule fluorescence (ZMW)
# [3] = test system: Bat-Hp-CoV NSP1;human 40S ribosomal subunit (Bat-Hp-CoV;Homo sapiens); assay: single-molecule fluorescence (ZMW)
# [4] = target: MERS-CoV NSP1;human 40S ribosomal subunit (MERS-CoV;Homo sapiens) (UniProt K9N7C7); assay: single-molecule fluorescence (ZMW)
# [5] = target: SARS-CoV-2 NSP1 (ybbR-NSP1) WT;human 40S ribosomal subunit;eIF1, eIF1A, eIF5, eIF3 lacking 3j, TC-GMPPNP (eIF2, Met-tRNAi) (SARS-CoV-2;Homo sapiens;Homo sapiens) (UniProt P0DTD1); assay: single-molecule fluorescence (ZMW)
# [6] = test system: human 40S ribosomal subunit;eIF1, eIF1A, eIF5, TC-GMPPNP (eIF2, Met-tRNAi) (Homo sapiens;Homo sapiens); assay: single-molecule fluorescence (ZMW)
# [7] = target: SARS-CoV-2 NSP1 (ybbR-NSP1) WT;human 40S ribosomal subunit;eIF1, eIF1A, eIF5, TC-GMPPNP (eIF2, Met-tRNAi) (SARS-CoV-2;Homo sapiens;Homo sapiens) (UniProt P0DTD1); assay: single-molecule fluorescence (ZMW)
# [8] = target: human 40S ribosomal subunit with the ybbR tag on RACK1, biotinylated or Cy5-labelled (human) (UniProt P63244)
# [9] = target: human 80S ribosome assembled on the CrPV IRES from 40S-ybbR-Cy3 and 60S-ybbR-Cy5 subunits (human (endogenous in HEK293T)) (UniProt P62841)
# [10] = target: human 40S ribosomal subunit with the ybbR tag on RACK1, biotinylated or Cy5-labelled (human) (UniProt P63244); remark: listed apart in the source
# [11] = target: human 40S ribosomal subunit with the ybbR tag on uS19, Cy3-labelled (human (endogenous in HEK293T)) (UniProt P62841)
# [12] = target: eIF1–40S(biotin) subunit complex (human) (UniProt P41567)
# [13] = target: human 40S ribosomal subunit with the ybbR tag on RACK1, biotinylated or Cy5-labelled (human) (UniProt P63244); remark: listed apart in the source
# [14] = target: human 40S ribosomal subunit with the ybbR tag on RACK1, biotinylated or Cy5-labelled (human) (UniProt P63244); remark: listed apart in the source
# [15] = target: human 40S ribosomal subunit with the ybbR tag on RACK1, biotinylated or Cy5-labelled (human) (UniProt P63244); remark: listed apart in the source
# UniProt P41567, sequence (P41567 whole entry, looked up, tested part not stated, one chain of several): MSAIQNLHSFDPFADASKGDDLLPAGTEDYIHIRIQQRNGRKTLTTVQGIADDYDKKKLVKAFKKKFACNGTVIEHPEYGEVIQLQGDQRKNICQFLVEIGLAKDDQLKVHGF
substance,measurement,setting,value
GGCCAGCCCCCUGAUGGGGGCGACACUCCACCAUGAAUCACUCCCCUGUGAGGAACUACUGUCUUCACGCAGAAAGCGUCUAGCCAUGGCGUUAGUAUGAGUGUCGUGCAGCCUCCAGGACCCCCCCUCCCGGGAGAGCCAUAGUGGUCUGCGGAACCGGUGAGUACACCGGAAUUGCCAGGACGACCGGGUCCUUUCUUGGAUAAACCCGCUCAAUGCCUGGAGAUUUGGGCGUGCCCCCGCAAGACUGCUAGCCGAGUAGUGUUGGGUCGCGAAAGGCCUUGUGGUACUGCCUGAUAGGGUGCUUGCGAGUGCCCCGGGAGGUCUCGUAGACCGUGCACCAUG [HCV+0],Kd,[1],< 1 nM
same,binding signal (% 40S events with NSP1),[1],57
same,Kd,[2],< 2 nM
same,Kd,[3],< 1 nM
same,binding signal (% complexes bound),[4],11
GGCCAGCCCCCUGAUGGGGGCGACACUCCACCAUGAAUCACUCCCCUGUGAGGAACUACUGUCUUCACGCAGAAAGCGUCUAGCCAUGGCGUUAGUAUGAGUGUCGUGCAGCCUCCAGGACCCCCCCUCCCGGGAGAGCCAUAGUGGUCUGCGGAACCGGUGAGUACACCGGAAUUGCCAGGACGACCGGGUCCUUUCUUGGAUAAACCCGCUCAAUGCCUGGAGAUUUGGGCGUGCCCCCGCAAGACUGCUAGCCGAGUAGUGUUGGGUCGCGAAAGGCCUUGUGGUACUGCCUGAUAGGGUGCUUGCGAGUGCCCCGGGAGGUCUCGUAGACCGUGCACCAUGAGCACG [HCV+6],binding signal (% complexes bound),[1],81
GGCCAGCCCCCUGAUGGGGGCGACACUCCACCAUGAAUCACUCCCCUGUGAGGAACUACUGUCUUCACGCAGAAAGCGUCUAGCCAUGGCGUUAGUAUGAGUGUCGUGCAGCCUCCAGGACCCCCCCUCCCGGGAGAGCCAUAGUGGUCUGCGGAACCGGUGAGUACACCGGAAUUGCCAGGACGACCGGGUCCUUUCUUGGAUAAACCCGCUCAAUGCCUGGAGAUUUGGGCGUGCCCCCGCAAGACUGCUAGCCGAGUAGUGUUGGGUCGCGAAAGGCCUUGUGGUACUGCCUGAUAGGGUGCUUGCGAGUGCCCCGGGAGGUCUCGUAGACCGUGCACCAUGAGCACGAAUCCU [HCV+12],binding signal,[1],0.044 s-1 (kobs)
same,binding signal,[5],0.013 s-1 (kobs)
GGCCAGCCCCCUGAUGGGGGCGACACUCCACCAUGAAUCACUCCCCUGUGAGGAACUACUGUCUUCACGCAGAAAGCGUCUAGCCAUGGCGUUAGUAUGAGUGUCGUGCAGCCUCCAGGACCCCCCCUCCCGGGAGAGCCAUAGUGGUCUGCGGAACCGGUGAGUACACCGGAAUUGCCAGGACGACCGGGUCCUUUCUUGGAUAAACCCGCUCAAUGCCUGGAGAUUUGGGCGUGCCCCCGCAAGACUGCUAGCCGAGUAGUGUUGGGUCGCGAAAGGCCUUGUGGUACUGCCUGAUAGGGUGCUUGCGAGUGCCCCGGGAGGUCUCGUAGACCGUGCACCAUGAGCACGAAUCCUAAACCUCAAAGAAAAACCGCCAGAACCAUGGAAGAC [HCV+48],Kd,[1],> 2000 nM
same,binding signal (% 40S events with NSP1),[1],60
GGUCUCUCUCUCUCUCUCUAUGUUCAAAUAAUCUCUCUCUCUCUCUCUCUCUCUCUCUCUCUC [M+41],binding signal (% complexes bound),[1],16
same,binding signal,[6],0.0038 s-1 (koff)
same,binding signal,[7],4 s-1 (koff)
"SARS-CoV NSP1 with an N-terminal ybbR tag, Cy3-labelled (from UniProt P0C6X7 1-180) (natural protein)",Kd,[8],< 2 nM
same,fraction of IRES–40S complexes bound at least once by NSP1 (≥∼5 s),[8],62%
same,koff,[8],< 0.006 s⁻¹
"SARS-CoV-2 NSP1 with an N-terminal ybbR tag, fluorescently labelled (from UniProt P0DTD1 1-180) (natural protein)",fraction of traces with an NSP1 binding event,[9],30%
same,kon,[10],3e+06 to 4e+06 M⁻¹ s⁻¹
same,time NSP1 remained bound after association,[11],120 s
same,Kd,[12],< 10 nM
same,koff,[12],0.0042 s⁻¹
same,kon,[12],300000 M⁻¹ s⁻¹
same,fraction of mRNA–40S complexes bound at least once by NSP1 (≥∼5 s),[13],16%
same,kobs (apparent association rate),[13],< 0.002 s⁻¹
same,Kd,[14],> 3000 nM
same,koff,[14],0.25 s⁻¹
same,Kd,[15],< 1 nM
same,fraction of IRES–40S complexes bound at least once by NSP1 (≥∼5 s),[15],77% and 60%
same,koff,[15],< 0.0043 s⁻¹
